# Assay results: patent US20250154198A1, “PEPTIDE INHIBITORS OF INTERLEUKIN-23 RECEPTOR” (Zealand Pharma A/S, priority 2021, published 2025)
# *1 amine or outer side, *2 acyl side, *3 side chain or, on linkers, in order; H or OH if unused. Bridges are numbered along the chain shown (N, C = ends). Primed or numbered codes have the meaning given here. Where no end group is shown, it is not given here. [ ]: non-standard residue; d: D form. 4‑Aminomethyl‑phenylacetyl = 4-aminomethyl-phenylacetyl unit, its amine closes the lactam, O=C(Cc1ccc(CN[*:1])cc1)[*:2]; 1,3‑dibromopropan‑2‑one = linker (CAS 816-39-7) joining two Cys as 1,3-dithio-propan-2-one bridge -SCH2C(=O)CH2S-; 1,3‑dibromopropan‑2‑one(3) = linker giving 1,3-dithio-propan-2-one bridge -SCH2C(=O)CH2S- between Cys; 4‑Aminomethyl‑phenylacetyl″ = N-terminal cap residue, O=C(Cc1ccc(CN[*:1])cc1)[*:2]; Pipz(1-CH2CO,4-CH2CH2NH) = O=C(CN1CCN(CCN[*:1])CC1)[*:2]; Trp(4-F) = N[C@@H](Cc1c[nH]c2cccc(F)c12)C(=O)O; Trp(6-F) = N[C@@H](Cc1c[nH]c2cc(F)ccc12)C(=O)O; Trp(7-Me) = Cc1cccc2c(C[C@H](N)C(=O)O)c[nH]c12; 2Nal = N[C@@H](Cc1ccc2ccccc2c1)C(=O)O; AEF = NCCOc1ccc(C[C@H](N)C(=O)O)cc1; 3Pal = N[C@@H](Cc1cccnc1)C(=O)O; 4Pal = N[C@@H](Cc1ccncc1)C(=O)O; αMeL = CC(C)C[C@](C)(N)C(=O)O; CH2COCH2 = O=C(C[*:1])C[*:2]; αMeV = CC(C)[C@](C)(N)C(=O)O; 3Amb = NCc1cccc(C(=O)O)c1; dDab = NCC[C@@H](N)C(=O)O; Orn = NCCC[C@H](N)C(=O)O; Dab = NCC[C@H](N)C(=O)O; Ahx = NCCCCCC(=O)O; βAla = NCCC(=O)O
# T1: human IL-23R endogenously expressed on DB cells (CRL-2289) (human, UniProt Q5VWK5 24-629)
# T1 sequence (looked up): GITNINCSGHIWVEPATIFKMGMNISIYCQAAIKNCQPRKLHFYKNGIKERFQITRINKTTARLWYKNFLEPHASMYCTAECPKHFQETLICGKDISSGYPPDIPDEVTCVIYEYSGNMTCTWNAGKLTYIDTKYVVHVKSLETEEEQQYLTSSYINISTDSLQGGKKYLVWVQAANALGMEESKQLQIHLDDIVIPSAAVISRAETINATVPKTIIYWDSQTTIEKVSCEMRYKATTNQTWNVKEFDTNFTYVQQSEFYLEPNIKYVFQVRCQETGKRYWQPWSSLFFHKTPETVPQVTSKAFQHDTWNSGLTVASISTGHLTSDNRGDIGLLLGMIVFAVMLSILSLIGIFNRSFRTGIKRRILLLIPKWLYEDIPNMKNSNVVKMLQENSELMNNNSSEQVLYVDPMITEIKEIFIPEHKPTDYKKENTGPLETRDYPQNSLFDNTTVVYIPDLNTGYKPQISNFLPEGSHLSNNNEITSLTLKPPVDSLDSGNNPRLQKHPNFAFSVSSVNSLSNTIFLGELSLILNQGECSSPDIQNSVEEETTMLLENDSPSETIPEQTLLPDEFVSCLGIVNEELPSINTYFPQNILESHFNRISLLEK
# Target: T1, human IL-23R endogenously expressed on …
# Test: cell-based or functional assay
row,IC50 (pSTAT3),Binder
1,8.43 nM,[3Amb]SC[Trp(7-Me)]QC[AEF][2Nal][αMeL]ER-NH2 (lactam (positions not given here); linker 3-6 via CH2COCH2; not fully specified (bridges)) [Compound 70]
2,41.1 nM,[3Amb]SEWQ[Orn][AEF][2Nal][αMeL]ER-NH2 (lactam (positions not given here); lactam 3-6; not fully specified (bridges); printed as [(3-Aminomethyl)benzoyl](1c)*SE(2c)WQ[Orn](2c)[Y(2-aminoethoxy)][2-Nal][2-Me-Leu]E(1c)R-[NH2]) [Compound 69]
3,10.6 nM,"[4‑Aminomethyl‑phenylacetyl]SCWQC[AEF][2Nal][αMeL]E[dR]-OH (lactam N-10; linker 3-6 via 1,3‑dibromopropan‑2‑one(3)) [Compound 108]"
4,0.117 nM,"[4‑Aminomethyl‑phenylacetyl]SEWQ[Orn][AEF][2Nal][αMeL]E[Dab][3Pal]-NH2 (lactam N-10, 3-6; SMILES CC(C)C[C@]1(C)NC(=O)[C@H](Cc2ccc3ccccc3c2)NC(=O)[C@H](Cc2ccc(OCCN)cc2)NC(=O)[C@@H]2CCCNC(=O)CC[C@H](NC(=O)[C@H](CO)NC(=O)Cc3ccc(cc3)CNC(=O)CC[C@@H](C(=O)N[C@@H](CCN)C(=O)N[C@@H](Cc3cccnc3)C(N)=O)NC1=O)C(=O)N[C@@H](Cc1c[nH]c3ccccc13)C(=O)N[C@@H](CCC(N)=O)C(=O)N2) [Compound 124]"
5,8.89 nM,[Ahx]SCWQC[AEF][2Nal][αMeL]E[dR]-NH2 (lactam (positions not given here); linker 3-6 via CH2COCH2; not fully specified (bridges); printed as [6-Aminohexanoyl](1c)*SC(2a)WQC(2a)[Y(2-aminoethoxy)][2-Nal][2-Me-Leu]E(1c)[{d}R]-[NH2]) [Compound 87]
6,12.5 nM,Ac-KSCWQC[AEF][2Nal][αMeL]E[dR]-NH2 (lactam 1-10; linker 3-6 via CH2COCH2; SMILES CC(=O)N[C@H]1CCCCNC(=O)CC[C@@H](C(=O)N[C@H](CCCNC(=N)N)C(N)=O)NC(=O)[C@](C)(CC(C)C)NC(=O)[C@H](Cc2ccc3ccccc3c2)NC(=O)[C@H](Cc2ccc(OCCN)cc2)NC(=O)[C@@H]2CSCC(=O)CSC[C@H](NC(=O)[C@H](CO)NC1=O)C(=O)N[C@@H](Cc1c[nH]c3ccccc13)C(=O)N[C@@H](CCC(N)=O)C(=O)N2) [Compound 84]
7,39.4 nM,"[4‑Aminomethyl‑phenylacetyl]SE[Trp(4-F)]Q[Dab][AEF][2Nal][αMeL]E[Dab]-NH2 (lactam N-10, 3-6; SMILES CC(C)C[C@]1(C)NC(=O)[C@H](Cc2ccc3ccccc3c2)NC(=O)[C@H](Cc2ccc(OCCN)cc2)NC(=O)[C@@H]2CCNC(=O)CC[C@H](NC(=O)[C@H](CO)NC(=O)Cc3ccc(cc3)CNC(=O)CC[C@@H](C(=O)N[C@@H](CCN)C(N)=O)NC1=O)C(=O)N[C@@H](Cc1c[nH]c3cccc(F)c13)C(=O)N[C@@H](CCC(N)=O)C(=O)N2) [Compound 138]"
8,15.8 nM,"[Pipz(1-CH2CO,4-CH2CH2NH)]SCWQC[AEF][2Nal][αMeL]E[dR]-NH2 (lactam (positions not given here); linker 3-6 via CH2COCH2; not fully specified (bridges); printed as [(4-(2-Aminoethyl)-piperazine-1-yl)-acetyl](1c)*SC(2a)WQC(2a)[Y(2-aminoethoxy)][2-Nal][2-Me-Leu]E(1c)[{d}R]-[NH2]) [Compound 90]"
9,21.5 nM,"[4‑Aminomethyl‑phenylacetyl]SCWQC[AEF][2Nal][αMeL]E[dDab]((2-(trimethyl-2-aminoethoxy)ethoxy)propyl)-NH2 (lactam N-10; linker 3-6 via 1,3‑dibromopropan‑2‑one(3)) [Compound 109]"
10,8.8 nM,"[4‑Aminomethyl‑phenylacetyl]SEWQ[Dab][AEF][2Nal][αMeV]E[Dab]-NH2 (lactam N-10, 3-6; SMILES CC(C)[C@]1(C)NC(=O)[C@H](Cc2ccc3ccccc3c2)NC(=O)[C@H](Cc2ccc(OCCN)cc2)NC(=O)[C@@H]2CCNC(=O)CC[C@H](NC(=O)[C@H](CO)NC(=O)Cc3ccc(cc3)CNC(=O)CC[C@@H](C(=O)N[C@@H](CCN)C(N)=O)NC1=O)C(=O)N[C@@H](Cc1c[nH]c3ccccc13)C(=O)N[C@@H](CCC(N)=O)C(=O)N2) [Compound 136]"
11,11.3 nM,"[4‑Aminomethyl‑phenylacetyl″]SCWQC[AEF][2Nal][αMeL]E[dH]-NH2 (lactam N-10; linker 3-6 via 1,3‑dibromopropan‑2‑one(3)) [Compound 117]"
12,> 1 µM,"cyclo(DSCWQCWWLR) (linker 3-6 via 1,3‑dibromopropan‑2‑one) [Compound 6]"
13,8.54 nM,Ac-KTCWQC[AEF][2Nal][αMeL]E[dR]-NH2 (lactam 1-10; linker 3-6 via CH2COCH2; SMILES CC(=O)N[C@H]1CCCCNC(=O)CC[C@@H](C(=O)N[C@H](CCCNC(=N)N)C(N)=O)NC(=O)[C@](C)(CC(C)C)NC(=O)[C@H](Cc2ccc3ccccc3c2)NC(=O)[C@H](Cc2ccc(OCCN)cc2)NC(=O)[C@@H]2CSCC(=O)CSC[C@H](NC(=O)[C@H]([C@@H](C)O)NC1=O)C(=O)N[C@@H](Cc1c[nH]c3ccccc13)C(=O)N[C@@H](CCC(N)=O)C(=O)N2) [Compound 85]
14,28 nM,"[4‑Aminomethyl‑phenylacetyl]VEWQ[Dab][AEF][2Nal][αMeL]E[Dab]-NH2 (lactam N-10, 3-6; SMILES CC(C)C[C@]1(C)NC(=O)[C@H](Cc2ccc3ccccc3c2)NC(=O)[C@H](Cc2ccc(OCCN)cc2)NC(=O)[C@@H]2CCNC(=O)CC[C@H](NC(=O)[C@H](C(C)C)NC(=O)Cc3ccc(cc3)CNC(=O)CC[C@@H](C(=O)N[C@@H](CCN)C(N)=O)NC1=O)C(=O)N[C@@H](Cc1c[nH]c3ccccc13)C(=O)N[C@@H](CCC(N)=O)C(=O)N2) [Compound 126]"
15,21.3 nM,[3Amb]SCWQC[AEF][2Nal][αMeL]ER[4Pal]-NH2 (lactam (positions not given here); linker 3-6 via CH2COCH2; not fully specified (bridges); printed as [(3-Aminomethyl)benzoyl](1c)*SC(2a)WQC(2a)[Y(2-aminoethoxy)][2-Nal][2-Me-Leu]E(1c)R[3-(4-Pyridyl)-Ala]-[NH2]) [Compound 79]
16,63.9 nM,[3Amb]S[Orn]WQE[AEF][2Nal][αMeL]ER-NH2 (lactam (positions not given here); lactam 3-6; not fully specified (bridges); printed as [(3-Aminomethyl)benzoyl](1c)*S[Orn](2c)WQE(2c)[Y(2-aminoethoxy)][2-Nal][2-Me-Leu]E(1c)R-[NH2]) [Compound 68]
17,18.9 nM,"[4‑Aminomethyl‑phenylacetyl]SCWQC[AEF][2Nal][αMeL]E[dQ]-NH2 (lactam N-10; linker 3-6 via 1,3‑dibromopropan‑2‑one(3)) [Compound 115]"
18,0.0253 nM,"[4‑Aminomethyl‑phenylacetyl″]S[Dab]WQE[AEF][2Nal][αMeL]E[Dab][3Pal]-NH2 (lactam N-10, 3-6; SMILES CC(C)C[C@]1(C)NC(=O)[C@H](Cc2ccc3ccccc3c2)NC(=O)[C@H](Cc2ccc(OCCN)cc2)NC(=O)[C@@H]2CCC(=O)NCC[C@H](NC(=O)[C@H](CO)NC(=O)Cc3ccc(cc3)CNC(=O)CC[C@@H](C(=O)N[C@@H](CCN)C(=O)N[C@@H](Cc3cccnc3)C(N)=O)NC1=O)C(=O)N[C@@H](Cc1c[nH]c3ccccc13)C(=O)N[C@@H](CCC(N)=O)C(=O)N2) [Compound 123]"
19,16.7 nM,"[4‑Aminomethyl‑phenylacetyl]SCWQC[AEF][2Nal][αMeL]E[βAla]-NH2 (lactam N-10; linker 3-6 via 1,3‑dibromopropan‑2‑one(3)) [Compound 119]"
20,0.367 nM,"[4‑Aminomethyl‑phenylacetyl]SCWQC[AEF][Trp(6-F)][αMeL]E[Dab][3Pal]-NH2 (lactam N-10; linker 3-6 via 1,3‑dibromopropan‑2‑one(3)) [Compound 121]"
